Measured values: the RNAGym collection of RNA variant scans (doi:10.7554/elife.80360)

B1: HDV Ribozyme (parent)
chain: GGCCGGCAUGGUCCCAGCCUCCUCGCUGGCGCCGGCUGGGCAACAUUCCGAGGGGACCGUCCCCUCGGUAAUGGCGAAUGGGACCCA

Variants of: B1
Test: self-cleavage, relative activity (ratio to wild type); higher = more cleavage; co-transcriptional

In order of falling self-cleavage:
1. G50U A56C  1.18
2. A51U C58U  1.17
3. A51G C86A  1.16
4. A51C U69G  1.15
5. G50U G59C  1.14
6. A51C U69A  1.13
7. G50C U60C  1.13
8. A51G U69A  1.11
9. A51U G53U  1.11
10. G50U G55A  1.11
11. A51G U69G  1.09
12. A51U C62U  1.09
13. G50U C66U  1.09
14. A51C G76A  1.08
15. A51C C62U  1.08
16. G50C U69C  1.07
17. G52A G59A  1.07
18. G50U A56U  1.06
19. G50U G76A  1.05
20. G52A G59C  1.05
21. A51U U65C  1.04
22. A51C G52A  1.04
23. G50C C57A  1.04
24. A51C U65A  1.04
25. A51G A77G  1.02
26. A51C C58G  1.02
27. G50C C58A  1
28. G50U C58A  0.997
29. G52A U65G  0.986
30. G52A C66U  0.982
31. A51U U69G  0.98
32. A51C C57U  0.969
33. A51G C63U  0.969
34. G52A C63U  0.969
35. A51U U65A  0.966
36. A51U A87G  0.965
37. G50U G67A  0.959
38. A51U A87C  0.959
39. G52A U65C  0.954
40. A51C C58U  0.95
41. G50U U69G  0.95
42. A51C U60G  0.95
43. G50U A56G  0.943
44. A51G G76U  0.942
45. G50C C62U  0.939
46. A51C G67U  0.939
47. G50U U60C  0.938
48. A51C U65G  0.937
49. G50C C85A  0.933
50. A51C U69C  0.931
51. A51G U60C  0.931
52. A51U C64U  0.927
53. G52A A71U  0.923
54. A51C A71G  0.918
55. G50C A70G  0.917
56. G50C C66G  0.912
57. A51U C63A  0.911
58. G50U C66A  0.901
59. A51G U69C  0.9
60. A51U G68U  0.9
61. A51C C85U  0.898
62. A51C A71U  0.892
63. G52A A77G  0.89
64. G50U C58G  0.89
65. A51G C61U  0.889
66. A51U G52U  0.889
67. G52C A71G  0.884
68. A51C A87U  0.881
69. G50A U79A  0.88
70. G52A C61U  0.879
71. G50U U69A  0.872
72. G50U C85G  0.872
73. G50U U60A  0.87
74. G52A G59U  0.865
75. A51G G67C  0.864
76. G52A A70U  0.858
77. A51G U60A  0.852
78. G50U G59A  0.852
79. A51U A56C  0.851
80. A51G C57U  0.85
81. G50U G54A  0.85
82. A51U G52C  0.849
83. A51U C64A  0.845
84. G52A A71G  0.845
85. G52A C66G  0.841
86. A51C C85G  0.831
87. A51G G67A  0.831
88. G52C A71U  0.831
89. A51G C62A  0.812
90. G50C A70U  0.8
91. A51G G53U  0.795
92. G52A A70C  0.791
93. A51G G59A  0.787
94. A51U G68A  0.787
95. G50U A71G  0.78
96. A51C C58A  0.779
97. G50U A78G  0.776
98. A51U G53C  0.776
99. A51C G67A  0.77
100. G50U G54C  0.768
101. A51C C64A  0.764
102. A51C C85A  0.755
103. A51C A78G  0.751
104. G50U C86U  0.751
105. A51G C62G  0.739
106. G50C C64U  0.728
107. A51U C84U  0.716
108. A51U A83U  0.712
109. A51U A83G  0.669
110. A51G G53C  0.665
111. G50A U79G  0.629
112. A51G A71U  0.629
113. G50U G67C  0.617
114. A51C G52U  0.601
115. G50C G73C  0.601
116. A51U C64G  0.578
117. G50U C63A  0.57
118. A51C G73U  0.567
119. G50C G68A  0.563
120. G50C A71U  0.554
121. A51U G68C  0.554
122. G50U U72A  0.554
123. A51G C63G  0.538
124. A51U U79G  0.534
125. G52A G81A  0.529
126. G50C A70C  0.517
127. G50U U72C  0.487
128. G50A U79C  0.486
129. G50C C62A  0.475
130. A51G A71C  0.458
131. A51U C84G  0.443
132. G50C G81A  0.443
133. G50U A71C  0.435
134. G50U G74U  0.427
135. G50C U72G  0.415
136. G50U U72G  0.415
137. G52A C63G  0.415
138. G50U G73U  0.402
139. G50C C64G  0.383
140. A51C G81U  0.38
141. G50U A83C  0.375
142. G50U A78C  0.373
143. G50C G54A  0.369
144. G52A A78C  0.347
145. A51C G80A  0.345
146. A51C G52C  0.332
147. G52C A71C  0.332
148. G52A A77C  0.309
149. A51C G73C  0.293
150. A51U G81U  0.282
151. G52A A78U  0.277
152. G50U C75G  0.277
153. A51U A83C  0.269
154. G50C A71C  0.252
155. G50C G73U  0.246
156. A51U A78C  0.242
157. A51G G80U  0.229
158. G52A C75G  0.227
159. A51C G81C  0.193
160. G50C G53C  0.18
161. G52A C75A  0.166
162. G52A C75U  0.147
163. A51G G80C  0.141
164. A51U C62G  0.131
165. G50U C75U  0.13
166. G50U C75A  0.0773
167. G50C C62G  0
